Experimental data published in article PMC6439443.

Molecular target: High-mannose IgG1 antibody (human)
Test: SPR

With “EndoS2 E186L (catalytically inactive EndoS2 variant) (from UniProt T1WGN1 44-843) (enzyme)” the Kd was > 100 µM.
